The target in data set [1] is T1, Sp1 (rhSp1) (UniProt P08047 1-785). Description: EMSA. Background: Mobility shift assays separate free from complexed probe on a gel.
For data set [2], the target named is T1, Sp1 (rhSp1). Description: competition.

T1 sequence (P08047 whole entry): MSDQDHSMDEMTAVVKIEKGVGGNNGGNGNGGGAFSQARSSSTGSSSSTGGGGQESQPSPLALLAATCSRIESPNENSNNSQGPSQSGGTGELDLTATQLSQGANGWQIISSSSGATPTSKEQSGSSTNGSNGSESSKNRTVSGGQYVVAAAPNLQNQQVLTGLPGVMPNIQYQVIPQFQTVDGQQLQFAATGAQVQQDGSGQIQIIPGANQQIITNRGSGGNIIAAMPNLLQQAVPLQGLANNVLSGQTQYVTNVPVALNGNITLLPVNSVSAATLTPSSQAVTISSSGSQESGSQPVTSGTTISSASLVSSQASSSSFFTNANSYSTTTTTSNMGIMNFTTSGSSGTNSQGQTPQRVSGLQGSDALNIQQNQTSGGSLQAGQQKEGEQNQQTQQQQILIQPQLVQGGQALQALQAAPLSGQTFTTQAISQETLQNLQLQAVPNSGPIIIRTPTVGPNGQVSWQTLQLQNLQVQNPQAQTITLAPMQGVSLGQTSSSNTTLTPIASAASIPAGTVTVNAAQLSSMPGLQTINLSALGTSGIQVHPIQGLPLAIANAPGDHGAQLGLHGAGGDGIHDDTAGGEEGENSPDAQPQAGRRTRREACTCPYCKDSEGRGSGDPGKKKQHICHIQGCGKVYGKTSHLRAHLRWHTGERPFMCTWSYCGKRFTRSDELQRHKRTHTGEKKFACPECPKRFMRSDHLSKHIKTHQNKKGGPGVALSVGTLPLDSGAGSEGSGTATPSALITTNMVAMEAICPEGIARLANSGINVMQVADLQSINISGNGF

B1: DUT Sp1 (-64 to -91) (dsDNA)
DNA 1: GGGCGGTGGGTGGGGCGGGGCTGGCGGG
DNA 2: CCCGCCAGCCCCGCCCCACCCACCGCCC
In the case of B1, the binding result with Sp1 (rhSp1) [1] is recorded as “binds”.

B2: DUT Sp1Δ (dsDNA)
DNA 1: GTTCGGTGGGTGGTTCGGGGCTGGCTTG
DNA 2: CAAGCCAGCCCCGAACCACCCACCGAAC
Take B2: the binding result with Sp1 (rhSp1) [2] is “no binding”.

Values taken from paper PMC2615606.
